Experimental findings from US10556936B2, “Immunogenic proteins and fragments thereof from allergenic mites” (ALK-ABELLÓ A/S, priority 2016, dated 2020) are described below.

What all share (format): cell-based, human
Series [1] concerns PBMC cells obtained from mite allergic patients and non-allergics. Description: Ex vivo stimulation of PBMC: cytokine production (IFN-gamma, IL-9, IL-10, IL-17, IL-31). The gist of the method:
(§1)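 Freshly isolated PBMC (5×10^6/ml) from mite-allergic patients or non-allergics cultured 5 days with test protein up to 10 ug/ml; IFN-gamma, IL-9, IL-10, IL-17, IL-31 in supernatants by multiplex immunoassay. T cell lines, raised 3 weeks on HDM extract, tested at 0.5 or 2 ug/ml protein in 72 h proliferation assay.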

Series [2] relates to basophils in whole blood from HDM allergic donors. Nature of the series: Basophil Activation Test (BAT). The conditions noted are these: blood from HDM allergic individuals (n=14). The gist of the method:
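Whole blood from HDM-allergic donors (n=14) was stimulated for 1 h with test proteins across a concentration range, e.g. 1, 10, 100 or 1000 ng/ml. Basophil surface activation markers were measured by flow cytometry, with Der p 1 and Der p 2 tested at the same concentrations as controls.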

Series [3] deals with T cell lines obtained from HDM allergic individuals and non-allergics. Description: In vitro T cell proliferation test in T cell lines (Example 3). The conditions noted are these: 0.5 or 2 ug/ml, 72 h; for % responders of in-vitro T cell proliferation test, Allergic: T cell lines from HDM allergic individuals (n=30); for % responders of in-vitro T cell proliferation test, Non-allergics: T cell lines from non-allergics (n=8). In outline: as §1

B1: A018: house dust mite protein; SEQ ID NO: 5 (Der f), 6 (Der p), 314 (Blo t) (protein)
chain: MVKAVVVLKGDPNVSGTIFFEQQDNGPVKVTGSVQGLKPGLHGFHVHEFGDNTNGCTSAGAHYNPLNKTHGAPNDEERHVGDLGNIEANDKGVANVVIEDSLISLTGEKSIVGRSLVVHADPDDLGRGGHELSKTTGNAGGRLVCGVIGVTK
Regarding B1, in series [1], the “% HDM allergic individuals with cytokine production in ex-vivo T cell assay IL-5” value was determined as 0%, the “% HDM allergic individuals with cytokine production in ex-vivo T cell assay IL-9” value is on record as 6%, the “% HDM allergic individuals with cytokine production in ex-vivo T cell assay IL-10” value is reported as 56% and the “% HDM allergic individuals with cytokine production in ex-vivo T cell assay IL-13” value was 13%. Also, in series [1], the “% HDM allergic individuals with cytokine production in ex-vivo T cell assay IL-17” value is on record as 44%, the “% HDM allergic individuals with cytokine production in ex-vivo T cell assay IL-31” value turned out to be 6%, the “% HDM allergic individuals with cytokine production in ex-vivo T cell assay INF-g” value is given as 19% and the “% non-allergic individuals with cytokine production in ex-vivo T cell assay IL-5” value is on record as 0%. Further, in series [1], the “% non-allergic individuals with cytokine production in ex-vivo T cell assay IL-9” value is on record as 0%, the “% non-allergic individuals with cytokine production in ex-vivo T cell assay IL-10” value was 67%, the “% non-allergic individuals with cytokine production in ex-vivo T cell assay IL-13” value amounted to 17% and the “% non-allergic individuals with cytokine production in ex-vivo T cell assay IL-17” value amounted to 83%. In addition, in series [1], the “% non-allergic individuals with cytokine production in ex-vivo T cell assay IL-31” value worked out at 0% and the “% non-allergic individuals with cytokine production in ex-vivo T cell assay INF-g” value is given as 33%. Also, in series [2] (1 ng/ml), the “# of individuals of 14 with positive BAT test” value came to 0. Moreover, in series [2] (10 ng/ml), the “# of individuals of 14 with positive BAT test” value is recorded as 0. Besides, in series [2] (100 ng/ml), the “# of individuals of 14 with positive BAT test” value was 0. Further, in series [2] (1000 ng/ml), the “# of individuals of 14 with positive BAT test” value was 0. Besides, in series [3], the “% responders of in-vitro T cell proliferation test, Allergic” value worked out at 0% and the “% responders of in-vitro T cell proliferation test, Non-allergics” value (“% responders … Non-allergics” below) came to 0%.

B2: A020: house dust mite protein; SEQ ID NO: 15 (Der f), 16 (Der p); Blo t SEQ ID NO: 316 printed as A0019 (protein)
chain: MSKPIFYYHPFSGPCRTVSTVAKILNVDMEMKKLDLLTKEHLNPEFLKVNPFHKVPTFVDSDGFVVDESRVIAMYLVESRKPDSFLYPKNDLKKRIQIDRWLHYDINLSTTISAPMFCVFRGHQVQDYQVEQGKETLKTLDGVMQSFEGKFLTGADQFTLADIAMYFSLNTMEVYPKYFKFDDYPNLKSWYHRVAEALKQYDTEGTIPKAIETMKQFIQQRAAEAEKH
For B2, in series [1], the “% HDM allergic individuals with cytokine production in ex-vivo T cell assay IL-5” value was 6%, the “% HDM allergic individuals with cytokine production in ex-vivo T cell assay IL-9” value was found to be 0%, the “% HDM allergic individuals with cytokine production in ex-vivo T cell assay IL-10” value is reported as 25% and the “% HDM allergic individuals with cytokine production in ex-vivo T cell assay IL-13” value amounted to 6%. In series [1], the “% HDM allergic individuals with cytokine production in ex-vivo T cell assay IL-17” value worked out at 6%, the “% HDM allergic individuals with cytokine production in ex-vivo T cell assay IL-31” value amounted to 0%, the “% HDM allergic individuals with cytokine production in ex-vivo T cell assay INF-g” value is recorded as 0% and the “% non-allergic individuals with cytokine production in ex-vivo T cell assay IL-5” value came out at 0%. Besides, in series [1], the “% non-allergic individuals with cytokine production in ex-vivo T cell assay IL-9” value worked out at 0%, the “% non-allergic individuals with cytokine production in ex-vivo T cell assay IL-10” value was 0%, the “% non-allergic individuals with cytokine production in ex-vivo T cell assay IL-13” value was 0% and the “% non-allergic individuals with cytokine production in ex-vivo T cell assay IL-17” value is 0%. In series [1], the “% non-allergic individuals with cytokine production in ex-vivo T cell assay IL-31” value is 0% and the “% non-allergic individuals with cytokine production in ex-vivo T cell assay INF-g” value was 17%. Also, in series [2] (1 ng/ml), the “# of individuals of 14 with positive BAT test” value is on record as 0. Moreover, the “# of individuals of 14 with positive BAT test” value in series [2] (10 ng/ml) is 1. Further, the “# of individuals of 14 with positive BAT test” value in series [2] (100 ng/ml) came to 1. Moreover, the “# of individuals of 14 with positive BAT test” value in series [2] (1000 ng/ml) was found to be 1. Moreover, in series [3], the “% responders of in-vitro T cell proliferation test, Allergic” value is 18% and the “% responders … Non-allergics” value stood at 25%.

B3: A022: house dust mite protein; SEQ ID NO: 19 (Der f), 20 (Der p), 317 (Blo t) (protein)
chain: NWQMVWQDEFNGGHLDQNHWEFETGGGGWGNNELEFYTANRSQNVRVENGHLVIDVRVESYGGRDFTSGRIHSKQAWAYGKFEARARLPSGHHLWPAIWMFPRDSKYGPWAASGEIDIMEYRGDVHDKIEGTIHYGGQWPNNIYTGSGPHHFNVDFSKDFHNFAVEWDTKEIRWYMDGNKYFSVNIDRNMWSGKGNNPYNKNGQPFDQPFRWILNVAVGGNFFGPGPYVTPDQARHWQKHTMEIDYVRVYQWR
Regarding B3, in series [1], the “% HDM allergic individuals with cytokine production in ex-vivo T cell assay IL-5” value is 31%, the “% HDM allergic individuals with cytokine production in ex-vivo T cell assay IL-9” value was determined as 6%, the “% HDM allergic individuals with cytokine production in ex-vivo T cell assay IL-10” value is given as 6% and the “% HDM allergic individuals with cytokine production in ex-vivo T cell assay IL-13” value was determined as 13%. In series [1], the “% HDM allergic individuals with cytokine production in ex-vivo T cell assay IL-17” value is given as 0%, the “% HDM allergic individuals with cytokine production in ex-vivo T cell assay IL-31” value worked out at 0%, the “% HDM allergic individuals with cytokine production in ex-vivo T cell assay INF-g” value was found to be 0% and the “% non-allergic individuals with cytokine production in ex-vivo T cell assay IL-5” value came out at 0%. In series [1], the “% non-allergic individuals with cytokine production in ex-vivo T cell assay IL-9” value is given as 0%, the “% non-allergic individuals with cytokine production in ex-vivo T cell assay IL-10” value worked out at 0%, the “% non-allergic individuals with cytokine production in ex-vivo T cell assay IL-13” value is given as 0% and the “% non-allergic individuals with cytokine production in ex-vivo T cell assay IL-17” value is 0%. Moreover, in series [1], the “% non-allergic individuals with cytokine production in ex-vivo T cell assay IL-31” value was found to be 0% and the “% non-allergic individuals with cytokine production in ex-vivo T cell assay INF-g” value was found to be 17%. Besides, the “# of individuals of 14 with positive BAT test” value in series [2] (1 ng/ml) worked out at 0. Besides, the “# of individuals of 14 with positive BAT test” value in series [2] (10 ng/ml) was found to be 0. Also, the “# of individuals of 14 with positive BAT test” value in series [2] (100 ng/ml) was 3. The “# of individuals of 14 with positive BAT test” value in series [2] (1000 ng/ml) is recorded as 5. Moreover, in series [3], the “% responders of in-vitro T cell proliferation test, Allergic” value is 29% and the “% responders … Non-allergics” value amounted to 0%.

B4: A019: house dust mite protein; SEQ ID NO: 1 (Der f), 4 (Der p), 315 (Blo t) (protein)
chain: QVYCNGAAIVSAARSQIGVPYSWGGGGIHGKSRGIGEGANTVGFDCSGLAQYSVYQGTHKVLARVASGQYSDPKCHHVAYGSHQPGDLVFFGNPIHHVGIVSAHGRMINAPHTGTNVREENIWSDHIANVARCW
B4: in series [1], the “% HDM allergic individuals with cytokine production in ex-vivo T cell assay IL-5” value is 38%, the “% HDM allergic individuals with cytokine production in ex-vivo T cell assay IL-9” value is 56%, the “% HDM allergic individuals with cytokine production in ex-vivo T cell assay IL-10” value stood at 75% and the “% HDM allergic individuals with cytokine production in ex-vivo T cell assay IL-13” value is given as 56%. In addition, in series [1], the “% HDM allergic individuals with cytokine production in ex-vivo T cell assay IL-17” value amounted to 100%, the “% HDM allergic individuals with cytokine production in ex-vivo T cell assay IL-31” value was found to be 13%, the “% HDM allergic individuals with cytokine production in ex-vivo T cell assay INF-g” value is 50% and the “% non-allergic individuals with cytokine production in ex-vivo T cell assay IL-5” value is on record as 0%. Also, in series [1], the “% non-allergic individuals with cytokine production in ex-vivo T cell assay IL-9” value was 0%, the “% non-allergic individuals with cytokine production in ex-vivo T cell assay IL-10” value was found to be 100%, the “% non-allergic individuals with cytokine production in ex-vivo T cell assay IL-13” value was found to be 0% and the “% non-allergic individuals with cytokine production in ex-vivo T cell assay IL-17” value was determined as 100%. Besides, in series [1], the “% non-allergic individuals with cytokine production in ex-vivo T cell assay IL-31” value is given as 17% and the “% non-allergic individuals with cytokine production in ex-vivo T cell assay INF-g” value is 100%. For the same molecule, the “# of individuals of 14 with positive BAT test” value in series [2] (1 ng/ml) came to 2. Further, the “# of individuals of 14 with positive BAT test” value in series [2] (10 ng/ml) was 2. The “# of individuals of 14 with positive BAT test” value in series [2] (100 ng/ml) amounted to 2. For the same molecule, in series [2] (1000 ng/ml), the “# of individuals of 14 with positive BAT test” value is 4. Besides, in series [3], the “% responders of in-vitro T cell proliferation test, Allergic” value is recorded as 39% and the “% responders … Non-allergics” value was determined as 13%.
